For this assay, the target named is recombinant pscC protein of Pseudomonas aeruginosa (PA01), His-GST fusion (Pseudomonas aeruginosa PA01). Kind of assay: SEC. In general terms: SEC sorts molecules by how far they enter the pores of the column.

Regarding “recombinant pscC protein of Pseudomonas aeruginosa (PA01), His-GST fusion (domain or fragment)”, the stoichiometry N came to 2.

The term stoichiometry N denotes a count of units in the complex or per binding partner.
